For the assay, the target named is SARS-CoV-2 Spike protein (SARS-CoV-2, UniProt P0DTC2 14-1273). Kind of assay: cell-based or functional assay.

B1: affinity-matured nanobody R18 (VHH)
VHH: QVQLQESGGGLVQAGGSLRLSCAASGSISRDYDMGWYRQAPGKERKFVAGINVGGTTNYAGSVKGRFTISRDNAKNTVYLQMNSLKPEDTAVYYCAVHAVYTDGWEDGYLYPLPYWGQGTQVTVSS
With B1, the “neutralizing effect calculated by IC50 (SARS-CoV-2 pseudovirus on hACE2-293T cells), against parental R18” value was around 100 times.

B2: affinity-matured nanobody R13 (VHH)
VHH: QVQLQESGGGLVQAGGSLRLSCAASGTIFQVSSMGWYRQAPGKERKFVATIADGSSTNYAGSVKGRFTISRDNAKNTVYLQMNSLKPEDTAVYYCAALGQVSEYNSASYEWTYPYWGQGTQVTVSS
Regarding B2, the “neutralizing effect calculated by IC50 (SARS-CoV-2 pseudovirus on hACE2-293T cells), against parental R13” value is around 100 times.

The values are drawn from patent US20230218777A1 (Stanford University, published 2023).
